Test results as given in PMC3951440, “Assessing Specific Oligonucleotides and Small Molecule Antibiotics for the Ability to Inhibit the CRD-BP-CD44 RNA Interaction” (PLoS ONE, 2014).
pKd: −log10 of the molar value.

Legend:
CRD-BP (IMP1) (mouse) [1] = target: CRD-BP (IMP1) (mouse) (UniProt O88477); test: EMSA; details: EMSA: 5 mM Tris-Cl pH 7.4, 2.5 mM EDTA, 2 mM DTT, 5% glycerol, 0.1 mg/ml BSA, 0.5 mg/ml yeast tRNA, 5 U RNasin; 30 C with ice steps; 40 nM RNA probe
CRD-BP (IMP1) (mouse) [2] = target: CRD-BP (IMP1) (mouse) (UniProt O88477); test: competition; details: EMSA: 5 mM Tris-Cl pH 7.4, 2.5 mM EDTA, 2 mM DTT, 5% glycerol, 0.1 mg/ml BSA, 0.5 mg/ml yeast tRNA, 5 U RNasin; 30 C with ice steps; 40 nM RNA probe

CRD-BP (IMP1) (mouse), sequence (O88477 whole entry): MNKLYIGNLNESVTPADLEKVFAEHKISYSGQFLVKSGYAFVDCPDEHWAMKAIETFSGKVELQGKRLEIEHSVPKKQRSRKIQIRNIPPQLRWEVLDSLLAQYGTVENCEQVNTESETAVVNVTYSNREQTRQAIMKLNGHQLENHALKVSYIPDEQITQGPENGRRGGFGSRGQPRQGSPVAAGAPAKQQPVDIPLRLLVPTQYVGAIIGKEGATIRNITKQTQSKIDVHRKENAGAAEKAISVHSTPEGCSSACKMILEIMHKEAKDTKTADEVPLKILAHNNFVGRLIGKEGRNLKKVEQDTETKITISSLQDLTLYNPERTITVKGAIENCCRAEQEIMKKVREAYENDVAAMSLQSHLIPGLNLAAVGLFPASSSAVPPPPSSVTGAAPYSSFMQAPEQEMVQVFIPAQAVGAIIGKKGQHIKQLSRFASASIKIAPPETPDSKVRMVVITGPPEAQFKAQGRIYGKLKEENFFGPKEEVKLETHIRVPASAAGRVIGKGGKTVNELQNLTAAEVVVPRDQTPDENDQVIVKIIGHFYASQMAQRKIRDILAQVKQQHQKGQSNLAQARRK

Sequence	binding signal (CRD-BP (IMP1) (mouse) [1]) [% bound]	binding (CRD-BP (IMP1) (mouse) [1])	other results
GGAAAUUAGGGCCCAAUUAAUAAUCAGCAAGAAUUUGAUCGUUCCAGUUCCCACUUGGAGGC [P2 RNA]	5	–	–
GGAAAUUAGGGCCCAAUUAAUAAUCAGCAAGAAUUUGAUCGUUCCAGUUCCCACUUGGAGGCCUUUCAUCCCUCGGGUGUGCUAUGGAUGGCUUCUAACAAAAACUACACAUAUGUAUUCCU [P4 RNA]	–	no binding	–
GGAAAUUAGGGCCCAAUUAAUAAUCAGCAAGAAUUUGAUCGUUCCAGUUCCCACUUGGAGGCCUUUCAUCCCUCGGGUGUGCUAUGGAUGGCUUCUAACAAAAACUACACAUAUGUAUUCCUGAUCGCCAACCUUUCCCCCACCAGCUAA [P5 RNA]	15	–	–
GGAAAUUAGGGCCCAAUUAAUAAUCAGCAAGAAUUUGAUCGUUCCAGUUCCCACUUGGAGGCCUUUCAUCCCUCGGGUGUGCUAUGGAUGGCUUCUAACAAAAACUACACAUAUGUAUUCCUGAUCGCCAACCUUUCCCCCACCAGCUAAGGACAUUUCCCAGGGUUAAUAGGGCCUGGU [P6 RNA]	–	binds	–
GGAAAUUAGGGCCCAAUUAAUAAUCAGCAAGAAUUUGAUCGUUCCAGUUCCCACUUGGAGGCCUUUCAUCCCUCGGGUGUGCUAUGGAUGGCUUCUAACAAAAACUACACAUAUGUAUUCCUGAUCGCCAACCUUUCCCCCACCAGCUAAGGACAUUUCCCAGGGUUAAUAGGGCCUGGUCCCUGGGAGGAAAUUU [CD44 Fragment 4 RNA]	–	–	pKd (CRD-BP (IMP1) (mouse) [1]): 6.19; binding (CRD-BP (IMP1) (mouse) [2]): binds
